Assay results: US20250333497A1, “ACTIVATING ANTIBODIES OF RECEPTOR PROTEINS PLXDC1 AND PLXDC2” (THE REGENTS OF THE UNIVERSITY OF CALIFORNIA, priority 2022, published 2025)

Tests used:
[1] = tested on: human lung tumor endothelial cells expressing PLXDC1; experiment: Ex vivo tumor angiogenesis model: killing of tumor endothelial cells; assay type: cell-based; conditions: signal day 1 vs day 8, 500 nM printed for 3-G7
Experimental: The following protocol describes the Ex Vivo Tumor Angiogenesis Model.
1. The day before the experiment, all necessary tools were sprayed with 70% ethanol and sterilized under UV light overnight, including blade, dissecting and micro-dissecting scissors and […]. 24-well dishes were placed at 4° C. to pre-chill plates and Matrigel was thawed, 24 hours before tumor dissection.
2. 70% ethanol was sprayed on working bench. Two sterile petri dishes were prepared with 10 ml sterile PBS. The following steps 3 and 4 are necessary for mouse tumor models. For fresh human tumor, steps 3 and 4 are skipped.
3. The tumor-bearing mice were euthanized. 70% ethanol was sprayed on the mouse and the tumor was removed using sterilized dissecting tools (avoid the fur). The tumor was rinsed in petri dish with sterile PBS to remove ethanol and fur. The tumor was transferred to a new petri dish with PBS for dissection. The dish is placed on ice.
4. […]
9. When the assay was ready to be analyzed for cell death (e.g., 48 hours after drug addition), the dye mixture was prepared by mixing 6 μl of green dye to stain live cells (5 mg/ml Fluorescein diacetate or FDA in DMSO) with 30 μl of red dye (2.5 mg/ml Propidium iodide or PI in PBS) to stain dead cells in an Eppendorf tube. […]
14. Taking pictures in the red and green channels would allow not only the recording of the results but also more accurate quantitation of the results. […]

PLXDC1 [2] = experiment: Promotor activity in PLXDC1-expressing cells (activation of PLXDC signaling); assay type: cell-based
Excerpt: This example tested some of the identified antibodies for their activity in activating PLXDC signaling.

[3] = biological target: T1, full length PLXDC1 (PLXDC1-Full) (Homo sapiens, UniProt Q8IUK5); experiment: Domain A binding specificity: binding to full length PLXDC1 expressed in transfected cells
T1 construct: expressed in transfected cells
T1 sequence (Q8IUK5 19-500): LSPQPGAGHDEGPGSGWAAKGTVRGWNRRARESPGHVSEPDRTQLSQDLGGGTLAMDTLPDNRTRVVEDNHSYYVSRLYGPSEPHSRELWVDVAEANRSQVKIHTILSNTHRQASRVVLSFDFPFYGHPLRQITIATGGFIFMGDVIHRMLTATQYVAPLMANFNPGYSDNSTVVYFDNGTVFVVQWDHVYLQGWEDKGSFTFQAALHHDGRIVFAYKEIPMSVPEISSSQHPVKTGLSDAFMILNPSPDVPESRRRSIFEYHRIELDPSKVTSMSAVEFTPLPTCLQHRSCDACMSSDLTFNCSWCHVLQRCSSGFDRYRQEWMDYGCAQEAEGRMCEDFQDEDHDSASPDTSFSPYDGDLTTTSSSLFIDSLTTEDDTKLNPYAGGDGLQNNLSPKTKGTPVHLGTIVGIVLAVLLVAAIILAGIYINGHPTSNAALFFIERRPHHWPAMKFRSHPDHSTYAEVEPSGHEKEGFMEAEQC
Excerpt: (§1) The specific binding to Domain A of a PLXDC protein can be tested with a method described herein. In some embodiments, the method employs a PLXDC with the Domain A deleted. […] An example is Compound 369 as described above.
(§2) The Domain A-binding antibodies are 3-C11, 4-A8, 5-E2, 2-H2, 3-G6, 3-G7, 8-A7, 8-A9, 8-C9 and 8-D9.
(§3) Both full length PLXDC1 and Domain A deleted PLXDC1 (PLXDC1-dA) have an epitope tag on the N-terminus.

[4] = biological target: T2, Domain A-deleted PLXDC1 (PLXDC1-dA) (Homo sapiens, UniProt Q8IUK5); experiment: Domain A binding specificity: binding to Domain A-deleted PLXDC1 expressed in transfected cells
T2 construct: expressed in transfected cells
Excerpt: as §1, §2, §3

PLXDC1 [5] = experiment: Antibody binding to PLXDC1 with and without small molecule agonist compound 369 (FIG. 5)
[6] = antibodies of Table 3 tested for ability to bind Domain A
[7] = transfected into a cell line that does not express PLXDC1, FIG. 3-4

binding to PLXDC1 [3, 6]: able to bind PLXDC1 | binding to full length PLXDC1 (PLXDC1-Full) [3, 7]: only bound to full length PLXDC1 | binding to PLXDC1 mutant with Domain A deleted [4, 6]: not the mutant with Domain A deleted | binding to Domain A-deleted PLXDC1 (PLXDC1-dA) [4, 7]: did not bind to Domain A-deleted PLXDC1 | affinity to PLXDC1 when compound 369 was added (PLXDC1 [5]; small molecule agonist compound 369 present, FIG. 5 upper curve): greatly higher affinity | affinity to standalone PLXDC1 (PLXDC1 [5]; without compound 369, FIG. 5 lower curve): low nM affinity
B1: A006: VH SEQ ID NO:72, VL SEQ ID NO:73; Domain A-binding PLXDC1-activating antibody (antibody, V domains shown)
VH: QVQLVQSGAEVKKPGSSVKVSCKASGGTFSTEYISWVRQAPGQGLEWMGRIIPVLGITNYAQKFQGRVTITADESTSTAYMELSSLRSEDTAVYYCARHLGPPYLVTYSHGFDVWGQGTLVTVSS
VL: EIVMTQSPATLSVSPGERATLSCRASQSLGTNLAWYQQKPGQAPRLLIYGASTRATGIPARFSGSGSGTEFTLTISSLQSEDFAVYYCQQYYEAPPTFGQGTKVEIK
death of tumor endothelial cells expressing PLXDC1 [1]: led to the death of tumor endothelial cells expressing PLXDC1 | promotor activity in PLXDC1-expressing cells (PLXDC1 [2]; PLXDC1-expressing cells): activated the promotor activity | promotor activity in cells without PLXDC1 (PLXDC1 [2]; cells without PLXDC1): not in cells without PLXDC1
